Measurements taken from patent US20020077289A1, “Angiostatin and endostatin binding proteins and methods of use” (priority 2000, published 2002).
Entries after “also recorded” stand apart in the source; their conditions may differ. One block for each molecule: values may come before it. Bridges are numbered along the chain shown (N, C = ends). Where no end group is shown, it is not given here.

Experiments:
HUVEC microfilaments = assay: Fluorescent staining of formalin fixed endothelial cells with Alexa 488-labeled rhEndostatin; format: cell-based, human; settings: 50-fold molar excess (100 μM) of peptide; 40 μg/ml (2 μM) Alexa-rhEndostatin
Method: (A), HUVECs, (B), HAECs and (C), HMVECs were incubated in the presence of 40 micrograms per milliliter (μg/ml) Alexa 488-labeled rhEndostatin and photographed at 100× magnification under Alexa 488 (green) excitation wavelength. (D) and (E), HUVECs were incubated simultaneously in anti-tropomyosin TM311 ascites fluid and 40 micrograms per milliliter (μg/ml) Alexa 488-labeled rhEndostatin followed by incubation in Alexa 594 conjugated goat anti-mouse IgG (H+L). The same field was photographed under Alexa 488 (green) and Alexa 594 (red) excitation wavelengths at 100× magnification.
HUVECs were incubated in the presence of 40 micrograms per milliliter (μg/ml) Alexa 488-labeled rhEndostatin alone (A), or in the presence of a 50-fold molar excess of control peptide (B), or E37 peptide (C). Cells were photographed using the same exposure times at 100x magnification under Alexa 488 (green) excitation wavelength.
To detect the binding of Alexa-labeled rhEndostatin 1×10^4 HUVEC, HMVEC and HAECs were plated on 1.5% gelatin coated Nalge Nunc Lab Tek II chamber slides (Naperville, Ill.) and fixed in 10% neutral buffered formalin followed by a methanol wash. The chamber slides were incubated in PBS/1% calf serum containing 40 μg/ml (2 μM) of Alexa 488-labeled rhEndostatin (Narum et al., manuscript in preparation) for 1 hr at room temperature. The slides were washed in PBS, coverslips mounted using fluorescent mounting media (Kirkegaard and Perry Laboratories, Gaithersburg, Md.) and cells photographed under Alexa 488 excitation wavelength. Co-localization studies were performed as above except cells were incubated in PBS/1% calf serum containing 1:200 mouse anti-tropomyosin TM311 (Sigma, St. Louis, Miss.) and 40 μg/ml of Alexa 488-labeled rhEndostatin followed by incubation with goat anti-mouse IgG (H+L) conjugated to Alexa 594 (Molecular Probes, Eugene, Oregon). The same fields were photographed under Alexa 488 and Alexa 594 wavelengths. […]

B16-BL6 melanoma cells = assay: B16-BL6 experimental metastasis assay; format: in vivo, C57BL/6J mice; settings: co-injection of 1.5 nmol rhEndostatin and up to 375 nmol control peptide; p>0.11
Method: C57BL/6J mice were injected via the tail vein with 5×10^4 B16-BL6 melanoma cells on day 0. On day 3, groups of five mice received daily subcutaneous doses of either buffer control, 1.5 nmol (1.5 mg/kg/day) of rhEndostatin in combination with 0, 15, 75 or 375 nmol of control or E37 peptide, or control or E37 peptide alone for eleven days. All mice were sacrificed on day 14, and the number of pulmonary surface metastases in each animal counted. Error bars indicate standard deviation of the mean.
C57BL/6J mice (n=8) were injected intravenously (i.v.) with 5×10^4 B16-BL6 cells/mouse. Three days later treatment commenced. 100 μl of citrate-phosphate buffer (66 mM Sodium Phosphate, 17 mM Citric acid, 59 mM NaCl pH 6.2) containing 1.5 nmol of rhEndostatin and 100 μl of PBS containing either 0, 15, 75 or 375 nmol of control or E37 peptide were mixed and injected subcutaneously (s.c.) daily for 11 days. All mice were then sacrificed, their lungs removed and the number of surface metastases counted. Results were analyzed for statistical significance using the 2-tailed Student's t-test.
The following experiment was conducted to determine the interaction of E37 peptide and Endostatin protein. Briefly, the B16BL6 experimental metastasis assay, as known to those of skill in the art and further described in International Patent Application number PCT/US99/11418, was performed as follows. 5×10^4 B16-BL6 cells in 200 μl of PBS were injected into C57BL/6J mice via the tail vein. Three days post injection treatment was started. The injection received by eight groups of mice were: 1) citrate phosphate/PBS buffer, 2) ^30 μg Endostatin protein (in 100 μl PBS), 3) 30 μg Endostatin protein (in 200 μl PBS), 4) 30 μg Endostatin protein plus 50 times molar excess of control peptide (in 200 μl PBS), 5) 30 μg Endostatin protein plus 250 times molar excess of control peptide (in 200 μl PBS), 6) 30 μg Endostatin protein plus 10 times molar excess of E37 peptide (in 200 μl PBS), 7) 30 μg Endostatin protein plus 50 times molar excess of E37 peptide (in 200 μl PBS), and 8) 30 μg Endostatin protein plus 250 times molar excess of E37 peptide (in 200 μl PBS). Doses were administered daily for eleven days posterior to the thoracic cavity subcutaneously. All mice were sacrificed, the lungs removed and the number of surface metastases in each animal were counted under a stereo microscope.

rhEndostatin = biological target: T1, rhEndostatin (Homo sapiens, UniProt P39060); assay: ELISA of tropomyosin binding to rhEndostatin coated wells; settings: wells coated with 5 μg/ml rhEndostatin or BSA, detection with TM311 anti-tropomyosin
T1 construct: rhEndostatin were produced in P. pastoris and purified to homogeneity; made in house; host or cells: Pichia pastoris
T1 sequence (P39060 1572-1754 limits assumed): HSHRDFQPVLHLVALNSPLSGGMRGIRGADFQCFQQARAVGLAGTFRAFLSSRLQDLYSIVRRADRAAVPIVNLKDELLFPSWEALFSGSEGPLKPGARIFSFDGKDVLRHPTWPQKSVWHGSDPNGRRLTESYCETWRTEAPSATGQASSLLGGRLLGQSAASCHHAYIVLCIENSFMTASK
Method: FIG. 13 provides a graph showing that rhTM3 binds rhEndostatin in vitro. The wells of a 96-well plate were coated with either 5 micrograms/milliliter (μg/ml) of rhEndostatin (closed symbols) or BSA (open symbols) and incubated with increasing amounts of control E. coli lysate (circles) or tropomyosin expressing λ21-1 bacterial lysate (squares). The amount of tropomyosin binding to each well was determined spectrophotometrically following the addition of the TM311 anti-tropomyosin ascites fluid, alkaline phosphatase conjugated anti-mouse IgG and substrate. Error bars indicate standard deviation of the mean.
Plates were coated with 5 μg/ml of BSA or rhEndostatin and blocked. Dilutions of λ21-1 or control lysate were added and incubated for 1 hour at 37° C., followed by incubation with 1:500 diluted anti-tropomyosin TM311 ascites fluid (Sigma, St. Louis, Miss.). Following incubation in 1:5000 diluted anti-mouse IgG (H+L) conjugated to alkaline phosphatase (Promega, Madison, Wis.) wells were developed using Blue Phos Phosphatase Substrate (Kirkegaard and Perry, Gaithersburg, Md.) and the OD635 measured.
In this experiment the wells of a 96 well plate were either coated with 5 μg/ml of Endostatin protein or BSA protein. […] The wells were washed and incubated with anti-tropomyosin antibodies followed by anti-mouse IgG AP conjugated antibodies and developed using KPL Blue Phos microwell phosphatase solution. The OD635 was measured after a one hour incubation at room temperature and the results plotted in FIG. 8.
Recombinant human Endostatin protein and hTM3 were also shown to interact in a capture ELISA (FIG. 8).

[1] = biological target: T2, rhTM3 (human tropomyosin isoform 3) (Homo sapiens, UniProt P09493); assay: Surface plasmon resonance (BIAcore) binding to immobilized rhTM3
T2 construct: made in house; host or cells: E. coli BL21 (DE3), pET-21a(+)
T2 sequence (P09493 1-284 isoform P09493-3): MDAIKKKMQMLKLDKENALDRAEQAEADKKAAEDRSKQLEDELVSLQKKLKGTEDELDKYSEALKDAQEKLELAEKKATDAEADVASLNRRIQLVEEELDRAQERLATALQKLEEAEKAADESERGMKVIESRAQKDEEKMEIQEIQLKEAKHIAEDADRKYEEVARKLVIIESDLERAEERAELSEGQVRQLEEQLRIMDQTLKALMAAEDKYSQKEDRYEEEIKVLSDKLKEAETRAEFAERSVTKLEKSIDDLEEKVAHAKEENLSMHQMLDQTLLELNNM
Method: (A), 0, 10, 20, 40, 80 and 160 micromolar (μM) of rhEndostatin were injected at 5 microliters per minute (μl/minute) for 960 seconds through a biosensor flow cell that had been activated and blocked as a control for bulk refractive index and subsequently through a flow cell to which 3200 response units (RU) of rhTM3 had been immobilized. The binding kinetics were recorded and the differences between the two curves plotted for each rhEndostatin concentration. (B), 0, 11.5, 23 and 46 micromolar (μM) of rhAngiostatin were injected at 5 microliters per minute (μl/minute) for 900 seconds over a flow cell containing 3200 RU of rhTM3 as above. Samples were run in duplicate, the data corrected for bulk shift and the average of the 2 curves plotted. (C), Injection of 5 micromolar (μM) of rhEndostatin at 5 microliters per minute (μl/minute) for 240 seconds in the presence of 0, 6, 15, 30 and 45 micromolar (μM) of soluble rhTM3 over a flow cell containing 2000 RU of rhTM3. Samples were run in duplicate, the reference cell values subtracted and the average of each of the 2 curves plotted. The spikes in RU seen at the beginning and end of each injection are due to lag in flow caused by the rhTM3 and reference cells being non-adjacent.
Interactions between purified soluble rhEndostatin and rhTM3 were evaluated by surface plasmon resonance using the BIAcore 3000 (BiaCore, Piscataway, N.J.). The purified rhTM3 was immobilized on the flow cell of a CM-5 BIAcore biosensor chip. The running buffer was 0.01 M HEPES, pH 7.4, 0.15M NaCl and 0.005% polysorbate 20 (v/v). The competition experiments involving soluble rhTM3 were performed using PBS pH 7.4 as running buffer. All measurements were performed at 25° C. To correct for differences in bulk refraction all protein preparations were passed over an activated and blocked flow cell to which no protein had been coupled. Effects due to bulk shift were subtracted from experimental data.
Surface plasmon resonance performed using the BIAcore 3000 (BiaCore, Piscataway, N.J.) was used to assess the kinetics of rhEndostatin/rhTM3 binding. […]

[2] = biological target: recombinant human Endostatin protein (human); assay: cell-based or functional assay

Molecule: CSNSDKPKCGGGS (disulfide 1-9 (inferred)) [control peptide, reference compound]
inhibition of binding of Alexa-labeled rhEndostatin to HUVEC microfilaments (HUVEC microfilaments): not | incidence of metastatic lesions on the lungs versus 1.5 nmol rhEndostatin alone (B16-BL6 melanoma cells): statically indistinguishable

binding of tropomyosin to rhEndostatin (rhEndostatin): binds | binding of tropomyosin to rhEndostatin (rhEndostatin; listed as tropomyosin): considerably more tropomyosin bound | competition for binding of rhEndostatin to immobilized rhTM3 ([1]; 5 μM rhEndostatin with 0-45 μM soluble rhTM3, 2000 RU immobilized rhTM3): competed for the binding of rhEndostatin
Molecule: rhTM3: recombinant human tropomyosin isoform 3 (fibroblast tropomyosin), SEQ ID NO:119; also as λ21-1 bacterial lysate (EKVAHAKEENLSMHQMLDQTLLELNNM)
binding of tropomyosin to rhEndostatin (rhEndostatin; listed as hTM3): higher immunoreactivity in rhEndostatin coated wells than in wells coated with BSA; also recorded: binds

specific binding to immobilized rhTM3 ([1]; negative control, similar concentrations (0-46 μM) passed over the rhTM3 chip): no evidence of specific binding
B1: rhAngiostatin K1-3: recombinant human Angiostatin kringles 1-3 produced in P. pastoris, used as negative control (protein)
chain: VYLSECKTGNGKNYRGTMSKTKNGITCQKWSSTSPHRPRFSPATHPSEGLEENYCRNPDNDPQGPWCYTTDPEKRYDYCDILECEEECMHCSGENYDGKISKTMSGLECQAWDSQSPHAHGYIPSKFPNKNLKKNYCRNPDRELRPWCFTTDPNKRWELCDIPRCTTPPPSSGPTYQCLKGTGENYRGNVAVTVSGHTCQHWSAQTPHTHNRTPENFPCKNLDENYCRNPDGKRAPWCHTTNSQVRWEYCKIPSCDSSPV

decrease in the anti-tumor activity of rhEndostatin (B16-BL6 lung metastases), 1.5 nmol rhEndostatin co-injected with 15 nmol E37 peptide [2]: 11 percent | decrease in the anti-tumor activity of rhEndostatin (B16-BL6 lung metastases), 1.5 nmol rhEndostatin co-injected with 75 nmol E37 peptide [2]: 30.5 percent | decrease in the anti-tumor activity of rhEndostatin (B16-BL6 lung metastases), 1.5 nmol rhEndostatin co-injected with 375 nmol E37 peptide [2]: 84.5 percent | inhibition of lung metastasis, 1.5 nmol rhEndostatin co-administered with a 250-fold molar excess of E37 peptide [2]: 11% | inhibition of the formation of lung metastasis (B16BL6), 30 µg Endostatin protein plus 10 fold molar excess of E37 peptide [2]: 76% | inhibition of the formation of lung metastasis (B16BL6), 30 µg Endostatin protein plus 50 fold molar excess of E37 peptide [2]: 61% | inhibition of the formation of lung metastasis (B16BL6), 30 µg Endostatin protein plus 250 fold molar excess of E37 peptide [2]: 21%
B2: E37 peptide (synthetic, cyclized) (peptide)
chain: CTHWWHKRCGGGS
modifications: disulfide 1-9
